Measurements taken from the supplement of paper PMC5998384.

Assays:
HeLa Kyoto [1] = test: melting temperature (median over replicates), in situ; higher = more thermally stable
HeLa Kyoto [2] = test: solubility change mitosis vs G1/S (difference of NP-40 vs SDS log2 ratios) (log2 ratio difference); higher = more soluble in mitosis
HeLa Kyoto [3] = test: solubility in G1/S (NP-40 vs SDS abundance) (log2 ratio); higher = more soluble; details: cell cycle stage: G1/S
HeLa Kyoto [4] = test: thermal stability score vs G1/S (z-score of summed log2 fold changes over temperatures); higher = more thermally stable than in G1/S
[5] = cell cycle stage: early G1 (4.5 h after nocodazole release)
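For melting temperature (median over replicates), in situ in this document: HeLa Kyoto cells synchronized by double thymidine or nocodazole block, proteins quantified by TMT10plex mass spectrometry, three independent biological replicates.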
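For solubility change mitosis vs G1/S (difference of NP-40 vs SDS log2 ratios) in this document: synchronized HeLa Kyoto cells (double thymidine block for G1/S, nocodazole release for mitosis), protein amounts in NP-40 versus SDS lysates quantified by mass spectrometry, three biological replicates.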
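For solubility in G1/S (NP-40 vs SDS abundance) in this document: HeLa Kyoto cells arrested at G1/S by double thymidine block, proteins quantified by TMT10plex mass spectrometry in mild NP-40 versus SDS extracts, three biological replicates.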
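For thermal stability score vs G1/S (z-score of summed log2 fold changes over temperatures) in this document: synchronized HeLa Kyoto cells, proteins quantified by TMT10plex mass spectrometry, three biological replicates, mitosis taken 0.5 h after nocodazole release, G1/S directly after double thymidine block.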

TXNDC12, sequence (chain, as listed by the source): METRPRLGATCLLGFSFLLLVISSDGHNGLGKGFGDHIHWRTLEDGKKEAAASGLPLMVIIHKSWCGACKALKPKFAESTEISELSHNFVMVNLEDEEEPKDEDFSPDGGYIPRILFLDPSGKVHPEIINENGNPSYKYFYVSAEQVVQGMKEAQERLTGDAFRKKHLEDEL
SLC27A4, sequence (chain, as listed by the source): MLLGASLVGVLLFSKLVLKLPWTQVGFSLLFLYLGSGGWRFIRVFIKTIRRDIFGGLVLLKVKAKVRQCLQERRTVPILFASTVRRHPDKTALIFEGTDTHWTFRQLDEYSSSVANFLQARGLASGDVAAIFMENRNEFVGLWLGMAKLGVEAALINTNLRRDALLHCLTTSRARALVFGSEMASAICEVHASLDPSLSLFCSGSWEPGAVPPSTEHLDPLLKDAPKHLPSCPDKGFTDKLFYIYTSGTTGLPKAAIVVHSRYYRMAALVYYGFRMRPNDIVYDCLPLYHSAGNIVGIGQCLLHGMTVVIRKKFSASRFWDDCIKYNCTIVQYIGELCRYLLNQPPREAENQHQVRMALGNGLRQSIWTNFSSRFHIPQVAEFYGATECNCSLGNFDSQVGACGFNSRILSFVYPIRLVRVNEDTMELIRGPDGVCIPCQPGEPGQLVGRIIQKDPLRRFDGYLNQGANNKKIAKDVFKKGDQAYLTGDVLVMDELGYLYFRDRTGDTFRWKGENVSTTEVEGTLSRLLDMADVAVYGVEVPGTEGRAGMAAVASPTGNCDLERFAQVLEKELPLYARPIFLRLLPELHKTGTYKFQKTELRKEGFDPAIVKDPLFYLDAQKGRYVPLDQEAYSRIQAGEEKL
RHOC, sequence (chain, as listed by the source): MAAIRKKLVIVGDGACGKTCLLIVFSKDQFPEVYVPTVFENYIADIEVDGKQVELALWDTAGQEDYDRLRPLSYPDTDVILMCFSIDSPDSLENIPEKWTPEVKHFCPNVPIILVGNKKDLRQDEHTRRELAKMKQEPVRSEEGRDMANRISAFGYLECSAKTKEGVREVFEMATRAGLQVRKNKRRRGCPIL
WNK1, sequence (chain, as listed by the source): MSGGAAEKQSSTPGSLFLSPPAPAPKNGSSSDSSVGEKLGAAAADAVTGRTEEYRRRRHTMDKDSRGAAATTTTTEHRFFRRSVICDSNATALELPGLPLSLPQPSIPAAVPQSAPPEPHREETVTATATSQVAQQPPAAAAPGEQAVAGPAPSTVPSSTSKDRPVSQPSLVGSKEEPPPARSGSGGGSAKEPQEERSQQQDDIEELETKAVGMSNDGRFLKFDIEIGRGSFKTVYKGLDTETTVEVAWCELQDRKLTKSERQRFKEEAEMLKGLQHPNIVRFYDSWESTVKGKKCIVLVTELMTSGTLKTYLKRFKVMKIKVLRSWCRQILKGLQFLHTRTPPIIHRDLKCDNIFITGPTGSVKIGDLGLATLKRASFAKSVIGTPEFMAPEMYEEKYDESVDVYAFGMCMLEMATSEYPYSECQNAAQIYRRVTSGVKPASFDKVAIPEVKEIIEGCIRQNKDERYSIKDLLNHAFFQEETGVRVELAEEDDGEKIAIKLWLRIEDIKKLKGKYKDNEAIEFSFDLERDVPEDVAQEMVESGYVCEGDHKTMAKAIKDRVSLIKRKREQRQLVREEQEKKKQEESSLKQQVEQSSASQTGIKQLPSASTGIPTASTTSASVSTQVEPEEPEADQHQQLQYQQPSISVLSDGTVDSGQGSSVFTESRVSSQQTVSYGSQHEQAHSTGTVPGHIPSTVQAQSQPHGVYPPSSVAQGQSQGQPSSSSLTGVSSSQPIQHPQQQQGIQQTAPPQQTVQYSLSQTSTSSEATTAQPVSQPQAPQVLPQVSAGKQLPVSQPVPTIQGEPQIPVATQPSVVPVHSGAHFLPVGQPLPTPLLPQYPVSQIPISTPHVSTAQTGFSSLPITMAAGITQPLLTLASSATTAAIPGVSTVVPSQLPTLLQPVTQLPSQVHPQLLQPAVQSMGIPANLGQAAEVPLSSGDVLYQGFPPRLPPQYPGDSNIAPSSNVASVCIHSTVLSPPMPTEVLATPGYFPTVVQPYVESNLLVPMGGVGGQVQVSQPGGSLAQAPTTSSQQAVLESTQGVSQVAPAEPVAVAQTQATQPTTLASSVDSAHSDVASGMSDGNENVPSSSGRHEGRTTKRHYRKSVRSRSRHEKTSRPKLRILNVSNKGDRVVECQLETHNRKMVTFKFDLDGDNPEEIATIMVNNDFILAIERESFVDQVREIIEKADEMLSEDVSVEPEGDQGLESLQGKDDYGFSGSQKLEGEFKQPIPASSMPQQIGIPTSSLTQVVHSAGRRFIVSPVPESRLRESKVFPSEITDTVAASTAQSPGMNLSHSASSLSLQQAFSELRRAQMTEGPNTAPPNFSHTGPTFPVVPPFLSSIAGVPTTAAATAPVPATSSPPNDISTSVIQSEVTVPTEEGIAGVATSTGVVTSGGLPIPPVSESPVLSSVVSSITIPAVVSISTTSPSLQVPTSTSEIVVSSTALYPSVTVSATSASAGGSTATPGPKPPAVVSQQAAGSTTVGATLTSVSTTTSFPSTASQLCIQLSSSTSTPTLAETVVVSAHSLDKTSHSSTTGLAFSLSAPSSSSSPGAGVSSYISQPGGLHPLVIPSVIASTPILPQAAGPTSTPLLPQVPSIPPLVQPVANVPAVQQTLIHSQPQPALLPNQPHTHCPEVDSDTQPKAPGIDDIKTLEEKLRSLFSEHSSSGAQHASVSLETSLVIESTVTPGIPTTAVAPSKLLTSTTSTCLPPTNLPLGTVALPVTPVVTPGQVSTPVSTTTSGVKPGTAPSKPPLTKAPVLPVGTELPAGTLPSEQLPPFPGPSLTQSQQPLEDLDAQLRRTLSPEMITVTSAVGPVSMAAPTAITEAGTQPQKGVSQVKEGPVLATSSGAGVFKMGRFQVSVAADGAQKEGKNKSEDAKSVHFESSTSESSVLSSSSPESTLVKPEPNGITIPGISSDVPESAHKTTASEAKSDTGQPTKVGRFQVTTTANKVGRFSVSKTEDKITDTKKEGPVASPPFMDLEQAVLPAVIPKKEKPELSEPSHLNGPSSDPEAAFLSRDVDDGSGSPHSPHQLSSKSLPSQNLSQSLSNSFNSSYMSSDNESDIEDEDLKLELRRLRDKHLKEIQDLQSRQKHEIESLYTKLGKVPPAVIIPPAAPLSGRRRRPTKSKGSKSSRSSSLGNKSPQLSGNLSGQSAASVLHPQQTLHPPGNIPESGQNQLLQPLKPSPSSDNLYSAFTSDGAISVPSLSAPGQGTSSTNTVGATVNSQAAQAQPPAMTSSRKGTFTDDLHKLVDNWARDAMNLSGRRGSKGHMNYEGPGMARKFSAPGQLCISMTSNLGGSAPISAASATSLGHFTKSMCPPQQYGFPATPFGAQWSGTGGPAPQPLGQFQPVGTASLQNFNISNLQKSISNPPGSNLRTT
SAFB2, sequence (chain, as listed by the source): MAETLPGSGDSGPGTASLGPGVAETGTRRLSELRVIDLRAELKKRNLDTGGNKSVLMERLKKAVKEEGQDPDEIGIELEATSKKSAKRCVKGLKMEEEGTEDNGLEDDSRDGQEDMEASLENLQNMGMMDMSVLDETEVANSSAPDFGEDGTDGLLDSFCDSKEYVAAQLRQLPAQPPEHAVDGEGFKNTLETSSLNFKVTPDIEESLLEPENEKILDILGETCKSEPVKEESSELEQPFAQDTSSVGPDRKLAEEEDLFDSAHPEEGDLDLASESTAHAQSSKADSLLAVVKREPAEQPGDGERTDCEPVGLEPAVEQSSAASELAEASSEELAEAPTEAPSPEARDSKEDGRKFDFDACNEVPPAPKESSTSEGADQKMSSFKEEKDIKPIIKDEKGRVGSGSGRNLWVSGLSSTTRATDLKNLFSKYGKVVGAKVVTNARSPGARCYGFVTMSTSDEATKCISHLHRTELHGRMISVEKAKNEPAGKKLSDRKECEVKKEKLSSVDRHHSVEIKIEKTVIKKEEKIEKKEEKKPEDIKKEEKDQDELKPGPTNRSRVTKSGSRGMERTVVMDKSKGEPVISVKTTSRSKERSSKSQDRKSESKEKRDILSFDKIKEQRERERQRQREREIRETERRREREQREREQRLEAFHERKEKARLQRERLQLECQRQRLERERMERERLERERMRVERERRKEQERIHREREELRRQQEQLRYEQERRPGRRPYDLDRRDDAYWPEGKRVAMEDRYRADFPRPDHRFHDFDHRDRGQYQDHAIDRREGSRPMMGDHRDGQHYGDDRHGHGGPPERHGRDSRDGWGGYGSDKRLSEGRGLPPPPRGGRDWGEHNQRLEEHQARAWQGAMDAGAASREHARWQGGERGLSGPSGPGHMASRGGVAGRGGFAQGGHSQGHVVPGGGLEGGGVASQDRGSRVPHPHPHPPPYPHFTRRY
PDCD10, sequence (chain, as listed by the source): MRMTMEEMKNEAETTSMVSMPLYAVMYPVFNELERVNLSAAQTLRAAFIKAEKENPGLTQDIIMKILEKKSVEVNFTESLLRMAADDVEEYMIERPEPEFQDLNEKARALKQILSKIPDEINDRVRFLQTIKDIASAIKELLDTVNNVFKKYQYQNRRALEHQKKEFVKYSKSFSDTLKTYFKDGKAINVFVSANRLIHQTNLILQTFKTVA
PSMA6, sequence (chain, as listed by the source): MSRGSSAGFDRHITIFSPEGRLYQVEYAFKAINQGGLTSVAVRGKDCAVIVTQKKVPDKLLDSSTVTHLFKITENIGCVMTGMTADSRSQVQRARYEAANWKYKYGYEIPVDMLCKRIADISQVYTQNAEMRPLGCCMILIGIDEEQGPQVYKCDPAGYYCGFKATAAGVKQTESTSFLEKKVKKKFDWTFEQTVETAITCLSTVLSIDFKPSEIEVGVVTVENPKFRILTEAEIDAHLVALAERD
PUDP, sequence (chain, as listed by the source): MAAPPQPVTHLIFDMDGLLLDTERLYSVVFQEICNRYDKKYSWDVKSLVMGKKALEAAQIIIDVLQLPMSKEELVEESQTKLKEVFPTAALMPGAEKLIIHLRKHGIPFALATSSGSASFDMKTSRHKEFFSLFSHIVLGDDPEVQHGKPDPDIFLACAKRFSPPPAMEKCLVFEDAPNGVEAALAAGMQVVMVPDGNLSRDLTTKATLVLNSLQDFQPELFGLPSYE

| Substance | melting temperature (HeLa Kyoto [1]; cell cycle stage: G1/S) | melting temperature (HeLa Kyoto [1]; cell cycle stage: mitosis) | solubility change mitosis (log2) (HeLa Kyoto [2]) | solubility in G1/S (log2) (HeLa Kyoto [3]) | thermal stability score (HeLa Kyoto [4]; [5]) | thermal stability score (HeLa Kyoto [4]; cell cycle stage: mitosis) |
| --- | --- | --- | --- | --- | --- | --- |
| MYGSARSVGKVEPSSQSPGRSPRLPRSPRLGHRRTNSTGGSSGSSVGGGSGKTLSMENIQSLNAAYATSGPMYLSDHENVGSETPKSTMTLGRSGGRLPYGVRMTAMGSSPNIASSGVASDTIAFGEHHLPPVSMASTVPHSLRQARDNTIMDLQTQLKEVLRENDLLRKDVEVKESKLSSSMNSIKTFWSPELKKERALRKDEASKITIWKEQYRVVQEENQHMQMTIQALQDELRIQRDLNQLFQQDSSSRTGEPCVAELTEENFQRLHAEHERQAKELFLLRKTLEEMELRIETQKQTLNARDESIKKLLEMLQSKGLSAKATEEDHERTRRLAEAEMHVHHLESLLEQKEKENSMLREEMHRRFENAPDSAKTKALQTVIEMKDSKISSMERGLRDLEEEIQMLKSNGALSTEEREEEMKQMEVYRSHSKFMKNKVEQLKEELSSKEAQWEELKKKAAGLQAEIGQVKQELSRKDTELLALQTKLETLTNQFSDSKQHIEVLKESLTAKEQRAAILQTEVDALRLRLEEKETMLNKKTKQIQDMAEEKGTQAGEIHDLKDMLDVKERKVNVLQKKIENLQEQLRDKEKQMSSLKERVKSLQADTTNTDTALTTLEEALAEKERTIERLKEQRDRDEREKQEEIDNYKKDLKDLKEKVSLLQGDLSEKEASLLDLKEHASSLASSGLKKDSRLKTLEIALEQKKEECLKMESQLKKAHEAALEARASPEMSDRIQHLEREITRYKDESSKAQAEVDRLLEILKEVENEKNDKDKKIAELERQVKDQNKKVANLKHKEQVEKKKSAQMLEEARRREDNLNDSSQQLQDSLRKKDDRIEELEEALRESVQITAEREMVLAQEESARTNAEKQVEELLMAMEKVKQELESMKAKLSSTQQSLAEKETHLTNLRAERRKHLEEVLEMKQEALLAAISEKDANIALLELSSSKKKTQEEVAALKREKDRLVQQLKQQTQNRMKLMADNYEDDHFKSSHSNQTNHKPSPDQIIQPLLELDQNRSKLKLYIGHLTTLCHDRDPLILRGLTPPASYNLDDDQAAWENELQKMTRGQLQDELEKGERDNAELQEFANAILQQIADHCPDILEQVVNALEESS [ERC1] | 48.4 °C | 50.1 °C | 0.00205 | 0.626 | 1.35 | 1.65 |
| MYLQVETRTSSRLHLKRAPGIRSWSLLVGILSIGLAAAYYSGDSLGWKLFYVTGCLFVAVQNLEDWEEAIFDKSTGKVVLKTFSLYKKLLTLFRAGHDQVVVLLHDVRDVSVEEEKVRYFGKGYMVVLRLATGFSHPLTQSAVMGHRSDVEAIAKLITSFLELHCLESPTELSQSSDSEAGDPASQS [C17ORF62] | 55 °C | 55.1 °C | -0.128 | -0.124 | -1.46 | -0.834 |
| MYO5A | 51.1 °C | 49.6 °C | 0.167 | -0.679 | 0.0646 | -0.152 |
| MYYKFSGFTQKLAGAWASEAYSPQGLKPVVSTEAPPIIFATPTKLTSDSTVYDYAGKNKVPELQKFFQKADGVPVYLKRGLPDQMLYRTTMALTVGGTIYCLIALYMASQPKNK [COX7A2L] | 55.7 °C | 52.3 °C | 0.107 | -0.0362 | -2.74 | -1.52 |
| NEK7 | 49.1 °C | 49.4 °C | -0.165 | 0.62 | 1.38 | 1.14 |
| NFIC | 56.8 °C | 57.3 °C | 0.0157 | 0.109 | -1.32 | 2.11 |
| NIFK | 51.7 °C | 52.8 °C | 0.784 | -1.88 | 4.37 | 4.42 |
| NOTCH2 | 50.1 °C | 51 °C | -0.171 | -0.0358 | -1.09 | -2.98 |
| NUMA1 | 47.7 °C | 49.7 °C | 0.493 | -0.199 | 5.09 | 8.74 |
| OXSM | 58.8 °C | 61.2 °C | -0.0154 | -0.149 | 0.339 | -0.889 |
| PDCD10 | 49.2 °C | 50.7 °C | -0.0258 | 0.326 | 1.11 | 1.24 |
| PHF3 | 53.2 °C | 53.7 °C | 0.194 | -0.532 | 0.714 | 2.75 |
| PHF5A | 53.8 °C | 52.2 °C | 0.276 | -0.51 | -3.94 | -5.73 |
| PHF23 | 51.1 °C | 53.2 °C | 0.0233 | 0.107 | -0.742 | 0.2 |
| PIK3C2A | 49.3 °C | 48.6 °C | -0.063 | -0.334 | -0.0214 | 0.282 |
| PPCS | 52.1 °C | 52.9 °C | -0.173 | 0.249 | -0.584 | -0.132 |
| PPIH | 49.9 °C | 49.5 °C | 0.0864 | 0.00262 | 1.19 | 0.86 |
| PSMA6 | 62.9 °C | 60.9 °C | 0.0779 | -0.0362 | -1.86 | -3.6 |
| PTBP1 | 49.1 °C | 48.6 °C | 0.0339 | 0.378 | 5.29 | 9.17 |
| PUDP | 54.5 °C | 55.5 °C | -0.0216 | 0.454 | 1.26 | 0.384 |

| Substance | melting temperature (HeLa Kyoto [1]; cell cycle stage: G1/S) | melting temperature (HeLa Kyoto [1]; cell cycle stage: mitosis) | solubility change mitosis (log2) (HeLa Kyoto [2]) | solubility in G1/S (log2) (HeLa Kyoto [3]) | thermal stability score (HeLa Kyoto [4]; [5]) | thermal stability score (HeLa Kyoto [4]; cell cycle stage: mitosis) |
| --- | --- | --- | --- | --- | --- | --- |
| RABGAP1 | 50.9 °C | 50.5 °C | -0.111 | -0.122 | -0.113 | -0.37 |
| RALGAPA1 | 50.2 °C | 50.8 °C | -0.16 | -0.0986 | -0.328 | -0.518 |
| RAP1GAP2 | 50.3 °C | 50.3 °C | 0.327 | 0.164 | 0.21 | 0.699 |
| RHOC | 53.8 °C | 54.8 °C | -0.013 | 0.0468 | -0.123 | -1.75 |
| RREB1 | 49.4 °C | 50.8 °C | 0.214 | -0.318 | 0.176 | 1.2 |
| RSBN1L | 54.7 °C | 53.4 °C | 0.0823 | -0.468 | -0.891 | -3.56 |
| RSRC2 | 51.8 °C | 52.2 °C | 0.135 | -0.575 | 2.6 | 0.263 |
| SAFB2 | 50.3 °C | 51.4 °C | 0.345 | -0.828 | 0.782 | 0.916 |
| SEC16A | 49.4 °C | 49.7 °C | -0.00335 | -0.0963 | 0.0465 | 2.03 |
| SLC27A4 | 50.3 °C | 50.9 °C | -0.138 | -0.211 | 0.342 | 0.581 |
| SLC35E1 | 51.3 °C | 52 °C | -0.172 | -0.14 | 0.109 | 0.648 |
| SLTM | 51.1 °C | 51.4 °C | 0.595 | -1.17 | 0.205 | 2.43 |
| STK38 | 48.3 °C | 49.1 °C | -0.159 | -0.0452 | 0.464 | 1.32 |
| SUMF2 | 52.9 °C | 54.7 °C | 0.00354 | 0.289 | 4.15 | 3.23 |
| TANC1 | 50.1 °C | 50.7 °C | -0.166 | -0.0445 | -0.0485 | 0.875 |
| TARBP1 | 52.3 °C | 51.6 °C | -0.207 | -0.262 | 0.335 | -0.385 |
| TENM3 | 54.9 °C | 55.6 °C | -0.0942 | 0.0433 | -2.98 | -2.29 |
| THADA | 51.6 °C | 50.2 °C | -0.159 | -0.395 | -0.0368 | -1.12 |
| TIMM50 | 51.4 °C | 50.8 °C | -0.0286 | 0.393 | -0.406 | -0.388 |
| TMED2 | 55.5 °C | 55.3 °C | -0.171 | 0.169 | 1.23 | 2.29 |

| Substance | melting temperature (HeLa Kyoto [1]; cell cycle stage: G1/S) | melting temperature (HeLa Kyoto [1]; cell cycle stage: mitosis) | solubility change mitosis (log2) (HeLa Kyoto [2]) | solubility in G1/S (log2) (HeLa Kyoto [3]) | thermal stability score (HeLa Kyoto [4]; [5]) | thermal stability score (HeLa Kyoto [4]; cell cycle stage: mitosis) |
| --- | --- | --- | --- | --- | --- | --- |
| TMEM55B | 53.4 °C | 53.5 °C | -0.162 | 0.135 | -1.51 | -1.58 |
| TOP2A | 51 °C | 52.8 °C | -0.207 | -2.15 | -0.453 | 3.49 |
| TRIO | 48.9 °C | 49.5 °C | -0.0514 | -0.25 | -0.165 | 0.739 |
| TRIP11 | 49.1 °C | 49 °C | -0.135 | 0.34 | 0.295 | 1.48 |
| TROVE2 | 57.5 °C | 54.7 °C | -0.0914 | -0.149 | -4.29 | -4.23 |
| TXNDC5 | 55.3 °C | 57.3 °C | -0.0668 | 0.348 | 3.49 | 3.79 |
| TXNDC12 | 53.5 °C | 54.2 °C | 0.232 | 0.365 | -0.513 | -0.814 |
| UGGT1 | 54.2 °C | 55 °C | -0.156 | -0.0908 | 3.04 | 4.09 |
| USP16 | 50.4 °C | 49.5 °C | 0.122 | -0.321 | -0.114 | 0.382 |
| WNK1 | 51.9 °C | 52.2 °C | -0.164 | 0.0681 | 1.74 | 3.55 |
| XPNPEP3 | 53.4 °C | 53.3 °C | -0.146 | 0.275 | -0.645 | -2.12 |
| XPO4 | 52.4 °C | 52 °C | -0.113 | -0.0631 | 0.898 | 0.432 |
| YBX3 | 54 °C | 53.8 °C | -0.0607 | 0.366 | -3.49 | -8.21 |
| ZCCHC6 | 49.9 °C | 49.3 °C | 0.0648 | -0.226 | 1.03 | 2.02 |
| ZFYVE16 | 53.2 °C | 52.7 °C | -0.171 | -0.0282 | -2.53 | -1.48 |
| ZNF629 | 53.4 °C | 52.9 °C | -0.0563 | -0.355 | 0.477 | -1.32 |
| ZNF787 | 51.9 °C | 54.5 °C | 0.398 | -0.0171 | -0.71 | -1.22 |
| ZNFX1 | 50.3 °C | 49.5 °C | -0.0887 | -0.239 | -0.325 | 0.64 |
| ZWILCH | 50.9 °C | 50.2 °C | -0.229 | 0.0446 | 0.346 | 0.376 |
